Laboratory results reported in the Human Domainome abundance scans (Beltran et al. 2025).
± gives the uncertainty stated by the source.

B1: Ubiquitin-protein ligase residues 30 to 86; numbered along this chain, Q05086 (parent)
chain: KHLIERYYHQLTEGCGNEACTNEFCASCPTFLRMDNNAAAIKALELYKINAKLCDPH

Variants of: B1
Assay: abundance fitness (aPCA) (normalised: wild type 0, dead -1); higher = more abundant; growth selection in yeast, the domain comes from the species named
Details: Homo sapiens

Variant | abundance fitness
KHLIERYYHQLTEGCGNEACTNRFCASCPTFLRMDNNAAAIKALELYKINAKLCDPH [E23R] | -0.045 ± 0.055
KHLIERYYHQLTEGCGNEACTNFFCASCPTFLRMDNNAAAIKALELYKINAKLCDPH [E23F] | -0.084 ± 0.11
KHLIERYYHQLTEGCGNEACTNSFCASCPTFLRMDNNAAAIKALELYKINAKLCDPH [E23S] | -0.001 ± 0.064
KHLIERYYHQLTEGCGNEACTNCFCASCPTFLRMDNNAAAIKALELYKINAKLCDPH [E23C] | -0.082 ± 0.093
KHLIERYYHQLTEGCGNEACTNPFCASCPTFLRMDNNAAAIKALELYKINAKLCDPH [E23P] | -0.105 ± 0.087
KHLIERYYHQLTEGCGNEACTNMFCASCPTFLRMDNNAAAIKALELYKINAKLCDPH [E23M] | -0.021 ± 0.079
KHLIERYYHQLTEGCGNEACTNKFCASCPTFLRMDNNAAAIKALELYKINAKLCDPH [E23K] | -0.054 ± 0.078
KHLIERYYHQLTEGCGNEACTNDFCASCPTFLRMDNNAAAIKALELYKINAKLCDPH [E23D] | -0.062 ± 0.07
KHLIERYYHQLTEGCGNEACTNHFCASCPTFLRMDNNAAAIKALELYKINAKLCDPH [E23H] | -0.09 ± 0.1
KHLIERYYHQLTEGCGNEACTNYFCASCPTFLRMDNNAAAIKALELYKINAKLCDPH [E23Y] | -0.102 ± 0.097
KHLIERYYHQLTEGCGNEACTNQFCASCPTFLRMDNNAAAIKALELYKINAKLCDPH [E23Q] | -0.019 ± 0.087
KHLIERYYHQLTEGCGNEACTNLFCASCPTFLRMDNNAAAIKALELYKINAKLCDPH [E23L] | -0.106 ± 0.065
KHLIERYYHQLTEGCGNEACTNTFCASCPTFLRMDNNAAAIKALELYKINAKLCDPH [E23T] | -0.022 ± 0.081
KHLIERYYHQLTEGCGNEACTNWFCASCPTFLRMDNNAAAIKALELYKINAKLCDPH [E23W] | -0.134 ± 0.072
KHLIERYYHQLTEGCGNEACTNGFCASCPTFLRMDNNAAAIKALELYKINAKLCDPH [E23G] | -0.045 ± 0.048
KHLIERYYHQLTEGCGNEACTNAFCASCPTFLRMDNNAAAIKALELYKINAKLCDPH [E23A] | -0.077 ± 0.058
KHLIERYYHQLTEGCGNEAVTNEFCASCPTFLRMDNNAAAIKALELYKINAKLCDPH [C20V] | -1.02 ± 0.083
KHLIERYYHQLTEGCGNEALTNEFCASCPTFLRMDNNAAAIKALELYKINAKLCDPH [C20L] | -1.03 ± 0.091
KHLIERYYHQLTEGCGNEAETNEFCASCPTFLRMDNNAAAIKALELYKINAKLCDPH [C20E] | -1.02 ± 0.25
KHLIERYYHQLTEGCGNEAQTNEFCASCPTFLRMDNNAAAIKALELYKINAKLCDPH [C20Q] | -0.893 ± 0.37
KHLIERYYHQLTEGCGNEAPTNEFCASCPTFLRMDNNAAAIKALELYKINAKLCDPH [C20P] | -1.03 ± 0.12
KHLIERYYHQLTEGCGNEADTNEFCASCPTFLRMDNNAAAIKALELYKINAKLCDPH [C20D] | -0.883 ± 0.45
KHLIERYYHQLTEGCGNEAITNEFCASCPTFLRMDNNAAAIKALELYKINAKLCDPH [C20I] | -0.941 ± 0.22

Variant | abundance fitness
KHLIERYYHQLTEGCGNEAWTNEFCASCPTFLRMDNNAAAIKALELYKINAKLCDPH [C20W] | -0.98 ± 0.088
KHLIERYYHQLTEGCGNEAGTNEFCASCPTFLRMDNNAAAIKALELYKINAKLCDPH [C20G] | -0.86 ± 0.061
KHLIERYYHQLTEGCGNEAFTNEFCASCPTFLRMDNNAAAIKALELYKINAKLCDPH [C20F] | -0.889 ± 0.16
KHLIERYYHQLTEGCGNEAMTNEFCASCPTFLRMDNNAAAIKALELYKINAKLCDPH [C20M] | -1.08 ± 0.12
KHLIERYYHQLTEGCGNEANTNEFCASCPTFLRMDNNAAAIKALELYKINAKLCDPH [C20N] | -1.1 ± 0.31
KHLIERYYHQLTEGCGNEAYTNEFCASCPTFLRMDNNAAAIKALELYKINAKLCDPH [C20Y] | -0.717 ± 0.36
KHLIERYYHQLTEGCGNEAKTNEFCASCPTFLRMDNNAAAIKALELYKINAKLCDPH [C20K] | -1.13 ± 0.26
KHLIERYYHQLTEGCGNEASTNEFCASCPTFLRMDNNAAAIKALELYKINAKLCDPH [C20S] | -0.821 ± 0.078
KHLIERYYHQLTEGCGNEACTNELCASCPTFLRMDNNAAAIKALELYKINAKLCDPH [F24L] | -0.016 ± 0.055
KHLIERYYHQLTEGCGNEACTNEICASCPTFLRMDNNAAAIKALELYKINAKLCDPH [F24I] | -0.024 ± 0.083
KHLIERYYHQLTEGCGNEACTNEACASCPTFLRMDNNAAAIKALELYKINAKLCDPH [F24A] | -0.041 ± 0.056
KHLIERYYHQLTEGCGNEACTNEVCASCPTFLRMDNNAAAIKALELYKINAKLCDPH [F24V] | -0.03 ± 0.052
KHLIERYYHQLTEGCGNEACTNEMCASCPTFLRMDNNAAAIKALELYKINAKLCDPH [F24M] | -0.031 ± 0.071
KHLIERYYHQLTEGCGNEACTNETCASCPTFLRMDNNAAAIKALELYKINAKLCDPH [F24T] | -0.018 ± 0.065
KHLIERYYHQLTEGCGNEACTNESCASCPTFLRMDNNAAAIKALELYKINAKLCDPH [F24S] | -0.033 ± 0.056
KHLIERYYHQLTEGCGNEACTNEHCASCPTFLRMDNNAAAIKALELYKINAKLCDPH [F24H] | 0.028 ± 0.097
KHLIERYYHQLTEGCGNEACTNENCASCPTFLRMDNNAAAIKALELYKINAKLCDPH [F24N] | -0.017 ± 0.095
KHLIERYYHQLTEGCGNEACTNEYCASCPTFLRMDNNAAAIKALELYKINAKLCDPH [F24Y] | -0.026 ± 0.086
KHLIERYYHQLTEGCGNEACTNEQCASCPTFLRMDNNAAAIKALELYKINAKLCDPH [F24Q] | 0.016 ± 0.08
KHLIERYYHQLTEGCGNEACTNEECASCPTFLRMDNNAAAIKALELYKINAKLCDPH [F24E] | -0.057 ± 0.068
KHLIERYYHQLTEGCGNEACTNEDCASCPTFLRMDNNAAAIKALELYKINAKLCDPH [F24D] | -0.026 ± 0.08
KHLIERYYHQLTEGCGNEACTNEKCASCPTFLRMDNNAAAIKALELYKINAKLCDPH [F24K] | -0.041 ± 0.073
KHLIERYYHQLTEGCGNEACTNEPCASCPTFLRMDNNAAAIKALELYKINAKLCDPH [F24P] | -0.734 ± 0.088
